Measurements: the supplement of paper PMC9233669
Fewer inactive variants are shown than the library holds.

What was measured:
biotinyl-Ile-oxazolone = test: self-aminoacylation, catalytic enhancement (BIO) (fold over background); higher = more active; k-Seq, kA / k0A0; sequences stand for … in GGGAAUGGAUCCACAUCUACGAAUUC…UUCACUGCAGACUUGACGAAGCUG
Method in brief: (§1)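 Mutagenized RNA pools with a 21-nt variable region (0.43 μM) reacted with each biotinyl-aminoacyl-oxazolone at 2–1250 μM. Reactions ran in 50 μL HEPES/NaCl/KCl/MgCl2/CaCl2 buffer with 5% acetonitrile, pH 6.9–7.0, for 90 minutes at room temperature. Streptavidin-captured RNA was quantified by triplicate qPCR and Illumina sequencing, and per-sequence fraction reacted was fit to a pseudo-first-order model with 1000 bootstraps. Catalytic enhancement is median kA divided by the uncatalyzed rate, the low-activity peak of a bimodal Gaussian fit.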

biotinyl-Phe-oxazolone = test: self-aminoacylation, catalytic enhancement (BFO) (fold over background); higher = more active; k-Seq, kA / k0A0; sequences stand for … in GGGAAUGGAUCCACAUCUACGAAUUC…UUCACUGCAGACUUGACGAAGCUG
Method in brief: as §1

biotinyl-Val-oxazolone = test: self-aminoacylation, catalytic enhancement (BVO) (fold over background); higher = more active; k-Seq, kA / k0A0; sequences stand for … in GGGAAUGGAUCCACAUCUACGAAUUC…UUCACUGCAGACUUGACGAAGCUG
Method in brief: as §1

biotinyl-Trp-oxazolone = test: self-aminoacylation, catalytic enhancement (BWO) (fold over background); higher = more active; k-Seq, kA / k0A0; sequences stand for … in GGGAAUGGAUCCACAUCUACGAAUUC…UUCACUGCAGACUUGACGAAGCUG
Method in brief: as §1

biotinyl-Leu-oxazolone = test: self-aminoacylation, catalytic enhancement (BLO) (fold over background); higher = more active; k-Seq, kA / k0A0; sequences stand for … in GGGAAUGGAUCCACAUCUACGAAUUC…UUCACUGCAGACUUGACGAAGCUG
Method in brief: as §1

biotinyl-Met-oxazolone = test: self-aminoacylation, catalytic enhancement (BMO) (fold over background); higher = more active; k-Seq, kA / k0A0; sequences stand for … in GGGAAUGGAUCCACAUCUACGAAUUC…UUCACUGCAGACUUGACGAAGCUG
Method in brief: as §1

Row | Sequence | self-aminoacylation (biotinyl-Ile-oxazolone) | self-aminoacylation (biotinyl-Phe-oxazolone) | self-aminoacylation (biotinyl-Val-oxazolone) | self-aminoacylation (biotinyl-Trp-oxazolone) | self-aminoacylation (biotinyl-Leu-oxazolone) | self-aminoacylation (biotinyl-Met-oxazolone)
1 | AAGUCUGCUAAUAGACGCAAG [Fam3.1 aminoacylation ribozyme variant] | 0.692 | 1.01 | 0.715 | 0.653 | 0.771 | 0.669
2 | AAGUCUGCUAAUAGUAGCAAG [Fam3.1 aminoacylation ribozyme variant] | 0.968 | 1.42 | 1.08 | 1.67 | 1.44 | 1.24
3 | AAGUCUGCUAAUAGUCACAAG [Fam3.1 aminoacylation ribozyme variant] | 1.24 | 12.6 | 1.25 | 3.73 | 1.3 | 1.95
4 | AAGUCUGCUAAUAGUCGCGAG [Fam3.1 aminoacylation ribozyme variant] | 1.26 | 5.39 | 1.33 | 3.06 | 1.36 | 1.77
5 | AAGUCUGCUAAUAGUCGCUAG [Fam3.1 aminoacylation ribozyme variant] | 0.989 | 3.35 | 0.983 | 1.81 | 1.29 | 0.995
6 | AAGUCUGCUCAUAGUCGCAAG [Fam3.1 aminoacylation ribozyme variant] | 1.16 | 8.38 | 1.18 | 4.23 | 1.08 | 1.29
7 | AAGUCUUCUAAUAGUCGCAAG [Fam3.1 aminoacylation ribozyme variant] | 2.06 | 3.19 | 1.52 | 2.07 | 1.83 | 1.56
8 | AAGUGUGCCAAUAGUCGCAAG [Fam3.1 aminoacylation ribozyme variant] | 2.38 | 2.66 | 1.61 | 1.66 | 1.78 | 1.97
9 | AAGUGUGCUAAUAGUCCCAAG [Fam3.1 aminoacylation ribozyme variant] | 1.34 | 3.77 | 1.28 | 2.02 | 1.24 | 1.17
10 | AAGUGUGCUAAUAGUCGCAAA [Fam3.1 aminoacylation ribozyme variant] | 1.79 | 2.76 | 1.41 | 1.88 | 1.52 | 2.07
11 | AAGUGUGCUAAUAGUCGCACG [Fam3.1 aminoacylation ribozyme variant] | 1.19 | 2.38 | 1.04 | 2.16 | 1.5 | 1.6
12 | AAGUGUGCUAAUAGUCGUAAG [Fam3.1 aminoacylation ribozyme variant] | 1.54 | 28 | 1.12 | 7.72 | 0.899 | 1.69
13 | AAGUGUGCUAAUAGUCUCAAG [Fam3.1 aminoacylation ribozyme variant] | 1.26 | 8.7 | 1.62 | 2.73 | 1.44 | 1.4
14 | AAGUGUUCUAAUAGUCGCAAG [Fam3.1 aminoacylation ribozyme variant] | 1.6 | 2.39 | 1.32 | 1.54 | 1.64 | 1.7
15 | AAGUUAGCUAAUAAUCGCAAG [Fam3.1 aminoacylation ribozyme variant] | 1.77 | 2 | 1.26 | 1.12 | 1.38 | 1.3
16 | AAGUUAGCUAAUAGUCGCAAG [Fam3.1 aminoacylation ribozyme variant] | 1.78 | 5.25 | 1.49 | 2.21 | 1.52 | 1.6
17 | AAGUUAGCUAAUAGUCGCAGG [Fam3.1 aminoacylation ribozyme variant] | 1.76 | 4.27 | 1.8 | 1.77 | 1.62 | 1.6
18 | AAGUUAGCUAAUAGUCGCCAG [Fam3.1 aminoacylation ribozyme variant] | 1.91 | 1.48 | 1.33 | 3.82 | 1.67 | 2.09
19 | AAGUUAGCUAAUAGUCUCAAG [Fam3.1 aminoacylation ribozyme variant] | 1.26 | 2.11 | 1.27 | 1.69 | 0.902 | 1.22
20 | AAGUUCACUAAUAGUCGCAAG [Fam3.1 aminoacylation ribozyme variant] | 1.96 | 2.72 | 1.86 | 2.23 | 1.8 | 1.37
21 | AAGUUCGAUAAUAGUCGCAAG [Fam3.1 aminoacylation ribozyme variant] | 1.44 | 2.51 | 1.28 | 1.33 | 1.55 | 1.39
22 | AAGUUCGCAAAUAGUCGCAAG [Fam3.1 aminoacylation ribozyme variant] | 1.84 | 3.4 | 1.44 | 1.42 | 2.86 | 2.13

Row | Sequence | self-aminoacylation (biotinyl-Ile-oxazolone) | self-aminoacylation (biotinyl-Phe-oxazolone) | self-aminoacylation (biotinyl-Val-oxazolone) | self-aminoacylation (biotinyl-Trp-oxazolone) | self-aminoacylation (biotinyl-Leu-oxazolone) | self-aminoacylation (biotinyl-Met-oxazolone)
23 | AAGUUCGCUAACAGUCGCAAG [Fam3.1 aminoacylation ribozyme variant] | 1.45 | 2.24 | 1.33 | 1.06 | 1.81 | 1.36
24 | AAGUUCGCUAAUAAUCGCAAG [Fam3.1 aminoacylation ribozyme variant] | 1.24 | 1.54 | 1.31 | 0.758 | 1.02 | 1.24
25 | AAGUUCGCUAAUAGUGGCAAG [Fam3.1 aminoacylation ribozyme variant] | 0.737 | 0.484 | 0.56 | 0.444 | 0.8 | 0.601
26 | AAGUUCGCUAAUAUUCGCAAG [Fam3.1 aminoacylation ribozyme variant] | 1.71 | 2.16 | 1.65 | 1.25 | 1.84 | 1.36
27 | AAGUUCGCUAAUGGUCGCAAG [Fam3.1 aminoacylation ribozyme variant] | 1.55 | 4.06 | 1.5 | 1.62 | 1.8 | 1.33
28 | AAGUUCGCUCAUAGUCGCAAG [Fam3.1 aminoacylation ribozyme variant] | 2.23 | 7.56 | 1.77 | 2.26 | 1.96 | 2.01
29 | AAGUUGGAUAAUAGUCGCAAG [Fam3.1 aminoacylation ribozyme variant] | 1.17 | 1.31 | 1.01 | 1.12 | 0.984 | 1.11
30 | AAGUUGGCAAAUAGUCGCAAG [Fam3.1 aminoacylation ribozyme variant] | 1.57 | 2.07 | 1.41 | 2.03 | 1.32 | 1.04
31 | AAGUUGGCGAAUAGUCGCAAG [Fam3.1 aminoacylation ribozyme variant] | 1.78 | 2.86 | 1.78 | 2.72 | 1.51 | 1.64
32 | AAGUUGGCUAAUGGUCGCAAG [Fam3.1 aminoacylation ribozyme variant] | 1.29 | 1.01 | 1.4 | 1.23 | 1.1 | 1.28
33 | AAGUUUACUAAUAGUCACAAG [Fam3.1 aminoacylation ribozyme variant] | 1.74 | 2.55 | 1.44 | 1.39 | 1.33 | 1.33
34 | AAGUUUACUAAUAGUCGCAAA [Fam3.1 aminoacylation ribozyme variant] | 1.95 | 2.01 | 1.61 | 2.06 | 1.35 | 1.44
35 | AAGUUUAUUAAUAGUCGCAAG [Fam3.1 aminoacylation ribozyme variant] | 1.74 | 2.49 | 1.82 | 1.94 | 1.53 | 1.95
36 | AAGUUUCCGAAUAGUCGCAAG [Fam3.1 aminoacylation ribozyme variant] | 2.01 | 2.81 | 1.79 | 1.87 | 1.7 | 1.73
37 | AAGUUUCCUAACAGUCGCAAG [Fam3.1 aminoacylation ribozyme variant] | 1.23 | 1.26 | 1.03 | 0.58 | 0.963 | 0.884
38 | AAGUUUCCUAAUAGUCGCAAA [Fam3.1 aminoacylation ribozyme variant] | 1.99 | 3.59 | 1.43 | 1.96 | 1.99 | 1.74
39 | AAGUUUCCUAAUAGUCGCAAG [Fam3.1 aminoacylation ribozyme variant] | 1.57 | 2.47 | 1.36 | 1.62 | 1.42 | 1.34
40 | AAGUUUCCUAAUCGUCGCAAG [Fam3.1 aminoacylation ribozyme variant] | 0.879 | 1 | 0.893 | 0.618 | 0.896 | 0.973
41 | AAGUUUCCUAAUUGUCGCAAG [Fam3.1 aminoacylation ribozyme variant] | 1.47 | 0.96 | 1.38 | 0.994 | 1.88 | 1.14
42 | AAGUUUCUUAAUAGUCGCAAG [Fam3.1 aminoacylation ribozyme variant] | 1.95 | 3.21 | 1.69 | 1.66 | 1.92 | 1.56
43 | AAGUUUGAUAAAAGUCGCAAG [Fam3.1 aminoacylation ribozyme variant] | 1.51 | 2.15 | 1.22 | 1.46 | 1.13 | 1.64
